How the values were obtained:
Assay in all cases: SPR
[1] = molecular target: mouse Interleukin 33 (residues 112-270) (mouse)
[2] = molecular target: HpARI_CCP2/3 (HpARI with CCP1 truncated) (Heligmosomoides polygyrus bakeri)
[3] = molecular target: Heligmosomoides polygyrus Alarmin Release Inhibitor (HpARI), full-length (Heligmosomoides polygyrus bakeri)
[4] = molecular target: HpARI-LD (full-length HpARI with residues 180-188 of the CCP3 loop deleted) (Heligmosomoides polygyrus bakeri)
[5] = molecular target: HpARI_CCP1/2 (HpARI with CCP3 truncated) (Heligmosomoides polygyrus bakeri)

Sequence of HpARI_CCP2/3 (HpARI with CCP1 truncated) (Heligmosomoides polygyrus bakeri) (A0A3P7XL18 63-297): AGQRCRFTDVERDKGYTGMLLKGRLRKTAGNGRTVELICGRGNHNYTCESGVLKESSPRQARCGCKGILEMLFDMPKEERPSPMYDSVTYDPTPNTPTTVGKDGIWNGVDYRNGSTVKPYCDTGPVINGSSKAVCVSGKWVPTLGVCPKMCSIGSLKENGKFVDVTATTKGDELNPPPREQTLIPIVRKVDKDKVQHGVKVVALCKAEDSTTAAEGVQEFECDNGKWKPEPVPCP

For “HpARI-LD (full-length HpARI with residues 180-188 of the CCP3 loop deleted) (natural protein)”, the percent reduction of mIL-33 binding against HpARI [1] was 60% and the percent reduction of mIL-33 binding to ST2-Fc [1] was 25%.

With mouse IL-33 R159A (ligand) the fold reduction in binding affinity against wild-type mIL-33 [2] was 1000 fold.

Substance “mouse Interleukin 33 (residues 112-270) (ligand)” has a Kd [3] of 0.048 nM, a Kd [4] of 45 nM and a Kd [5] of 49 nM. The koff, fold over that of full-length HpARI [5] was > 100 fold and the Kd [2] was 4 nM.

Reference: article doi:10.1101/2023.08.10.552813
